Test results as given in patent US20250258178A1 (SHIONOGI, published 2025).

Experiments:
Assay in all cases: peptide microarray, fluorescent anti-mouse IgG
Peptide #14 = target: T1, Peptide #14 (human)
T1 construct: 15-mer of human HRG on the peptide microarray; the printed position spans only 14 residues
T1 peptide: GHHPHGHHPHGHHPH
Method: (§1) An overlapping peptide scanning method was performed to find out specific antibody-binding peptide epitopes. The amino acid sequence of the HRG protein was obtained in NCBI protein database. PEPperPrint (registered trademark) (Heidelberg, Germany) was commissioned to prepare PEPperCHIP peptide microarrays designed from HRG protein sequences. Each peptide consisted of an overlapping peptide library having 15 amino acid residues overlapping 14 amino acid residues and was extended at the N- and C-terminus with a neutral GSGSGSG linker to ensure that the peptides were separated from each other. […] After treatment of 21 types of anti-HRG monoclonal antibodies, it stained with an anti-mouse IgG polyclonal secondary antibody followed by reading fluorescence intensity on a scanner to quantify protein-antibody binding.
(§2) Each microarray was processed as follows. Before incubation with a sample, a standard buffer was applied on slides followed by treating with a blocking buffer. The microarray was treated with a fluorescently-labeled anti-mouse IgG secondary antibody followed by the measurement of background fluorescence intensity caused by non-specific interactions using a scanner.
(§3) The microarray was incubated with the 21 types of anti-HRG monoclonal antibodies. The microarray was stained with a fluorescently labeled anti-mouse IgG secondary antibody. The fluorescence intensity at each position was measured by a scanner.

Peptide #11 = target: T2, Peptide #11 (human)
T2 construct: 15-mer of human HRG on the peptide microarray; the printed position spans only 14 residues
T2 peptide: HPHGHHPHGHHPHGH
Method: as §1, §2, §3

Peptide #25 = target: T3, Peptide #25 (human)
T3 construct: 15-mer of human HRG printed on a PEPperCHIP peptide microarray
T3 peptide: HHPHCHDFQDYGPCD
Method: as §1, §2, §3

Peptide #17 = target: T4, Peptide #17 (human)
T4 construct: 15-mer of human HRG printed on a PEPperCHIP peptide microarray
T4 peptide: PHGHHPHGHHPHCHD
Method: as §1, §2, §3

Peptide #15 = target: T5, Peptide #15 (human)
T5 construct: 15-mer of human HRG on the peptide microarray; the printed position spans only 14 residues
T5 peptide: HHPHGHHPHGHHPHC
Method: as §1, §2, §3

Peptide #6 = target: T6, Peptide #6 (human)
T6 construct: 15-mer of human HRG printed on a PEPperCHIP peptide microarray
T6 peptide: GPPLPQGPPPLLPMS
Method: as §1, §2, §3

Peptide #7 = target: T7, Peptide #7 (human)
T7 construct: 15-mer of human HRG printed on a PEPperCHIP peptide microarray
T7 peptide: PPLPQGPPPLLPMSC
Method: as §1, §2, §3

Measured: binding result

B1: anti-HRG monoclonal antibody 75-2D (antibody, V domains shown)
VH: QVQLQQSGAELMKPGASVKISCKATGYTFSSYWIEWVKQRPGHGLEWIGEILPGSGRTNYNEKFKGKATFTADTSSNTAYMQLSSLTSEDSAVYYCARYSYFYYFDYWGQGTTLTVSS
VL: DNVLTQSPAIMSASLGERVTMTCTASSSVSSSYLHWYQQKPGSSPKLWIYSTSNLASGVPARFSGSGSGTSYSLTISSMEAEDAATYYCHQYHRSPWTFGGGTKLEIK
notes: Mouse hybridoma monoclonal; also called clone No. 75-2D
not listed: Peptide #6 | Peptide #7
binds: all other assays above

B2: anti-HRG monoclonal antibody 69-1A (antibody, V domains shown)
VH: EVKLEESGGGLVQPGGSMKLSCAASGFTFSDAWMDWVRQSPEKGLEWVAEIRSKANNHGTYYAESVKGRFTISRDDSKSSVYLRMNSLSAEDTGIYYCTRPFAYWGQGTLVTVSA
VL: DVVVTQTPLSLPVSLGDQASISCRSSQSLVHIDGNTYFHWYVQKPGQSPKLLIYKVSNRFSGVPDRFSGSGSGTDFTLKISRVEAEDLGVYFCSQSTHVPLTFGAGTKLELK
notes: Mouse hybridoma monoclonal; also called clone No. 69-1A
binds: Peptide #6 | Peptide #7
